Laboratory results taken from paper PMC6193675 (PLoS ONE, 2018).

B1: reconstructed predicted precursor form of antibody 447-52D (antibody, V domains shown)
VH: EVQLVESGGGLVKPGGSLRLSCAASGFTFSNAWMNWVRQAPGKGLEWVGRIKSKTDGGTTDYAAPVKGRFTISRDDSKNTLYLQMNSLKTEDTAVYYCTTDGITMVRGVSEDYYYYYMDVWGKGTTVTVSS
VL: QSVLTQPPSVSAAPGQKVTISCSGSSSNIGNNYVSWYQQLPGTAPKLLIYDNNKRPSGIPDRFSGSKSGTSATLGITGLQTGDEADYYCGTWDSSLSAGWVFGGGTKLTVL
notes: V(D)J segments with the highest identity to mature 447-52D (IgBLAST), mature HCDR3 kept; Detected with anti-human secondary antibodies; also called precursor for antibody 447-52D; 447-52D precursor; source: HEK293T, transfected, purified
B2: reconstructed predicted precursor form of antibody VRC01 (antibody, V domains shown)
VH: not shown
VL: EIVLTQSPATLSLSPGERATLSCRASQSVSSYLAWYQQKPGQAPRLLIYDASNRATGIPARFSGSGSGTDFTLTISSLEPEDFAVYYCQQRSNWPYTFGQGTKLEIK
notes: V(D)J segments with the highest identity to mature VRC01 (IgBLAST), mature HCDR3 kept; Detected with anti-human secondary antibodies; also called precursor for antibody VRC01; VRC01 precursor; source: HEK293T, transfected, purified

Molecular target: yeast-displayed unmodified gp140 from HIV strain YU2, fused at its C-terminal to Aga2p (HIV-1 group M subtype B, isolate YU-2, UniProt P35961, strain)
Experiment: flow cytometry on cells; yeast cells displaying YU2 Env-Aga2p fusions incubated with 100 nM precursor antibody at 4°C for 16-18 h in PBI (PBS pH 7.2, 1% BSA, protease inhibitors); fluorescent secondary antibody
Settings: one partner purified

Row | Binder | binding result
1 | B1 | no binding (tested: 100 nM)
2 | B2 | no binding (tested: 100 nM)
